In patent US7169567B1, “Screening assay utilizing the PTH receptor” (The General Hospital Corporation, priority 1998, dated 2007):
Where no end group is shown, it is not given here.

Columns and labels:
[1] = target: T1, intact rat PTH-1 receptor (rWT-HA) (Rattus norvegicus, UniProt P25961); assay: cAMP response in COS-7 cells transiently transfected with intact rat PTH-1 receptor (rWT-HA); type: cell-based; settings: COS-7 cells expressing rWT-HA
T1 construct: expressed in transfected cells; host or cells: COS-7, transient (DEAE-dextran), pCDNA-1 based plasmid
T1 sequence (P25961 23-591 E93Y/N94P/K95Y/T99D/G100Y/S101A limits assumed): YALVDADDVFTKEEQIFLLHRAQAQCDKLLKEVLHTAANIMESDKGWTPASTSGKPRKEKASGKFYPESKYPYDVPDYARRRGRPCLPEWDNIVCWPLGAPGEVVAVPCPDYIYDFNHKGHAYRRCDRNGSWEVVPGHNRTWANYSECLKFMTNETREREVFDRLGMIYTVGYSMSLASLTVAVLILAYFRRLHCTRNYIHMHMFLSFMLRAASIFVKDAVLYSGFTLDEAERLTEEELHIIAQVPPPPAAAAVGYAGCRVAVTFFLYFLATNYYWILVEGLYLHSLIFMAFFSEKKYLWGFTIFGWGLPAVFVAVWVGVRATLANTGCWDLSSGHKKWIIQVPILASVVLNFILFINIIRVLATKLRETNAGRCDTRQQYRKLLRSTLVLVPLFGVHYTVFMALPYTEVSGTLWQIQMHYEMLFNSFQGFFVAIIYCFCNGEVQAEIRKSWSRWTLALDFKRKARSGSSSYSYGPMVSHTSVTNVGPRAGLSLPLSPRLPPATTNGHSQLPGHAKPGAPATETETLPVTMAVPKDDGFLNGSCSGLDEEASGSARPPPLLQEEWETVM
Text: FIG. 4. PTH Responses of Intact and Truncated PTH-1 Receptors in COS-7 Cells. Shown at the top are schematics of the intact (A) and truncated (B) rat PTH-1 receptors used for transient transfection of COS-7 cells, and subsequent cAMP response assays. The conserved extracellular cysteine residues are depicted as open circles and numbered according to sequence position, and the nine amino acids of the epitope tag (HA) in rWT-HA are shaded. The tics at residue 26 and 181 indicate the endpoints of the deletion in rΔNt. Based on the predicted signal peptide cleavage site at Ala-22, residues 23–25 in rΔNt are joined to residue 182. The cAMP responses of COS-7 cells expressing the intact receptor (C) and rΔNt (D) to rPTH(1–34) (J) or rPTH(1–14) (C) are also shown. The graphs show combined data (mean±s.e.m.) from five separate experiments, each performed in duplicate.
FIG. 5. Alanine-scan of PTH(1–14) with Intact and Truncated PTH Receptors. COS-7 cells transiently transfected with rWT-HA (A) or rCE I-G (B) were treated with 100 mM of native rat PTH(1–14) or 100 mM of a rPTH(1–14) analog containing a single alanine substitution for 1 h at 21° C., and the resulting intracellular cAMP levels were measured by RIA. The amino acid substitutions are indicated on the axis labels. Peptides were tested in duplicate, and a single experiment representative of three others is shown. […]

[2] = tested on: PTH-1 receptor (intact or truncated receptors used in this study); assay: Competition and direct binding assays (radioiodinated rPTH(1–34) tracer or radiolabeled PTH(1–14) analog); settings: unlabeled peptide; radioiodinated rPTH(1–34) as tracer ligand; data not shown
Text: This reduced potency is not surprising, given that the PTH(1–14) peptide lacks important receptor-binding residues located in the PTH(15–34) region in the PTH(15–34) domain (Nussbaum, S. R., et al., J. Biol. Chem. 255:10183–10187 (1980); Gardella, T. J., et al., Endrocrinology 132(5):2024–2030 (1993); Caulfield, M. P., et al., Endocrinology 127:83–87 (1990); and Abou-Samra, A.-B., et al., Endocrinology 125:2215–2217 (1989)).

PTH(1–14): Amino-terminal peptide fragment based on the rat PTH sequence, residues 1–14, C-terminally amidated (AVSEIQLMHNLGKH-NH2)
potency relative to PTH(1–34) with rWT-HA [1]: four to five orders of magnitude weaker | binding in standard competition binding assays [2]: bound too weakly to permit detection
